Key:
Chd2 locus = assay: Chd2^R1684H knock-in by pronuclear injection of Cas9/crRNA/tracrRNA and ssODN, genotyping of cultured embryos; type: cell-based, mouse
Experimental: (§1) tracrRNA, crRNAs, and ssODNs were synthesized by Integrated DNA Technologies (TABLE 1). All injection mixtures were prepared in a final volume of 50 μL according to the following methodology: Using RNase-free water, reagents, and consumables, crRNA (final concentration 0.61 μM), tracrRNA (final concentration 0.61 μM), and ultrapure Tris-HCl, pH 7.39 (final concentration 10 mM, ThermoFisher) were mixed and incubated at 95° C. for 5 minutes. The mixtures were cooled to room temperature for 10 minutes on the benchtop, and then, EnGen Cas9-NLS S. pyogenes (New England Biolabs) was added to a final concentration of 30 ng/μL. The mixtures were incubated at 37° C. for 15 minutes before adding any remaining components: ssODN (final concentration 3 ng/μL or 30 ng/μL), RAD51 (Creative Biomart, final concentration 10 ng/μL). Injection mixtures were stored on ice and briefly heated to 37° C. prior to injection. For experiments utilizing RS-1, embryos were cultured in KSOM-AA (EMD Millipore MR-121-D) with […] RS-1 (Sigma) dissolved in DMSO or DMSO (Sigma, 1:1000) for 24 hours, washed, and cultured in EmbryoMax FHM HEPES Buffered Medium (Sigma) until collection for genotyping.
Female mice (4-5 weeks old, C57BL/6N) were superovulated by IP injection of PMS (5 IU/mouse, three days prior to microinjection) and hCG (5 IU/mouse, 47 hours after PMS injection) and then paired with males. […]

maternal Chd2 locus = assay: Donor-free interchromosomal homologous recombination (ICHR) in IVF-derived Chd2^R1684H/+ embryos; type: cell-based, mouse
Experimental: as §1
For experiments using wildtype recombinant proteins, the following proteins were used: RAD51 (Creative Biomart RAD51-134H), USP1/WDR48 (Creative Biomart USP1&WDR48-1067H), BCCIP (Origene TP303061), XRCC1 (TP304952), XRCC4 (Origene TP312684), DMC1 (Origene TP318311). For experiments using mutant RAD51, custom RAD51 preparations were produced by Creative Biomart according to their standard protocol for producing the wildtype RAD51 used in all other experiments. Mutant DNA sequences used for cloning are described in TABLE 2. All RAD51 mutants were modeled in human RAD51 transcript variant 4 (NCBI accession NM_001164269), as this is the transcript variant of the wildtype RAD51-134H protein used in all other experiments.
In vitro fertilization was performed using FERTIUP® Mouse Preincubation Medium and CARD MEDIA (Kyudo Company) according to the manufacturer's protocol. Non-virgin Chd2^R1684H/R1684H males that were >8 weeks old were used as sperm donors. Following IVF, embryos were cultured for 8 hours and then injected using the PNI protocol described below.
For all experiments except those described in FIG. 6, the male pronucleus was injected. Injections performed for the CPI portion of FIG. 6 were targeted to the cytoplasm. All microinjections were performed using a Narishige Micromanipulator, Nikon Eclipse TE2000-S microscope, and Eppendorf 5242 microinjector. Individual zygotes were injected with 1-2 pL of injection mixture using an “automatic” injection mode set according to needle size and adjusted for clear increase in pronuclear volume. Following injections, cells were cultured in KSOM-AA until collection for genotyping. For experiments giving rise to F0 animals, embryos were surgically implanted into pseudopregnant CD-1 females (Charles River Laboratories, Strain Code 022) 24-hours post-injection and allowed to develop normally until natural birth.
Embryos were collected at morula-to-blastocyst stage in 4 μL nuclease-free water. After collection, 4 μL of 2× embryo digestion buffer was added to each sample (final concentrations: 125 μg/mL proteinase K, 100 mM Tris-HCl pH 8.0, 100 mM KCl, 0.02% gelatin, 0.45% Tween-20, 60 μg/mL yeast tRNA) and embryos were lysed for 1 hour at 56° C. Proteinase K was inactivated via incubation at 95° C. for 10 minutes and DNA was stored at −20° C. until use.
Chd2^R1684H genotyping was performed via a two-step, nested approach. Except for experiments described in FIGS. 3A-3G, all 8 μL of embryo DNA were used as input for the initial, long round of PCR. Genotyping of mouse pups and adult animals was performed using 2 μL of purified tail DNA. For all embryo genotyping, reactions mixtures were set up in a UV-sterilized laminar flow hood using sterile reagents and filter tips to avoid contamination. […]

B1: RAD51: recombinant human strand exchange protein RAD51 (Creative Biomart RAD51-134H), transcript variant 4 (protein, UniProt Q06609 2-339, looked up)
DNA repair protein RAD51 …: AMQMQLEANADTSVEEESFGPQPISRLEQCGINANDVKKLEEAGFHTVEAVAYAPKKELINIKGISEAKADKILAEAAKLVPMGFTTATEFHQRRSEIIQITTGSKELDKLLQGGIETGSITEMFGEFRTGKTQICHTLAVTCQLPIDRGGGEGKAMYIDTEGTFRPERLLAVAERYGLSGSDVLDNVAYARAFNTDHQTQLLYQASAMMVESRYALLIVDSATALYRTDYSGRGELSARQMHLARFLRMLLRLADEFGVAVVITNQVVAQVDGAAMFAADPKKPIGGNIIAHASTTRLYLRKGRGETRICKIYDSPCLPEAEAMFAINADGVGDAKD
homozygous KI rate relative to injection without RAD51 (Chd2 locus): more than doubled | ICHR observed, share of injected embryos (maternal Chd2 locus; PNI at ~8 hpf of Cas9/crRNA/tracrRNA, no donor, 26% in control injected embryos): 74% | indel-to-ICHR ratio (maternal Chd2 locus; compared to control embryos): drastic decrease | overall indel rate (maternal Chd2 locus; compared to control embryos): drastic decrease

Reference: patent US11643670B2, “Methods of enhancing chromosomal homologous recombination” (Massachusetts Institute of Technology, priority 2018, dated 2023)
